The results in this text go back to patent US20180066318A1 (INSTITUT PASTEUR, published 2018).

The target of this assay is T1, in vitro translated HA-tagged NEMO (UniProt Q9Y6K9 1-419).
T1 construct: Negative control in the pull-down; made in TNT reticulocyte lysate; also called HA-NEMO; not shown: HA tag
Nature of the assay: GST pull-down of in vitro translated protein, anti-HA blot. The source says: FIGS. 1a-1d: binding of CARMA1 SH3 domain to E-Syt2. GST pull-down assays show direct interaction between E-Syt2 and SH3 domains. Schematic representation of CARMA1 (a) and E-Syt2 (b) mutant constructs. (c) upper panel: pull-down assays of the interactions between CARMA1 SH3 domain (GST-SH3c), Vav SH3 domain (GST-SH3v) or GST and in vitro translated HA-tagged E-Syt2, or NEMO in TNT® reticulocytes lysate systems. Ten percent of the input TNT lysates was also run on the PAGE and immunoblot with anti-HA to determine the relative binding capacity. […] Jurkat T cells were incubated with Raji B cells and coated with medium alone or with SEE. At 10 minutes, cells were fixed and E-SYT2 localized by immunofluorescence and confocal microscopy, using anti-A-SYT2 antibody, as described in the experimental procedure. The corresponding Nomarski images are shown on the bottom panels. Scale Bars represent 1 μm. (d) ESYT2 localized in microclusters Jurkat cells were settle onto glass coverslips coated either with anti-CD3, anti-CD28 or both and fixed 5 min of stimulation. The images of E-Syt2, PKCθ and TCT staining were taken by confocal microscopy.

T1 sequence (Q9Y6K9 whole entry): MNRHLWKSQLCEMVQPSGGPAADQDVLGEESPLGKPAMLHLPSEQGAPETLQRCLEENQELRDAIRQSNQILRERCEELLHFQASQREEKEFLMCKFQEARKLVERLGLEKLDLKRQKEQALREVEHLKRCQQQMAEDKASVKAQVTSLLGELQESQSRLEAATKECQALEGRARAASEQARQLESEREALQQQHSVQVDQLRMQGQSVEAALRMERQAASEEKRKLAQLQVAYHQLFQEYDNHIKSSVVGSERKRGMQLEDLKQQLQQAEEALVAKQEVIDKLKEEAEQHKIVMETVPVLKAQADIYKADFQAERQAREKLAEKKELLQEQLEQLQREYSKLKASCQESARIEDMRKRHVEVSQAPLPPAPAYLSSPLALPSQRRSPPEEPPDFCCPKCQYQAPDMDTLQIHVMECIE

B1: GST fused to the Vav SH3 domain (GST-SH3v) (other, UniProt P15498 782-845, looked up)
chain: KYFGTAKARYDFCARDRSELSLKEGDIIKILNKKGQQGWWRGEIYGRVGWFPANYVEEDYSEYC
notes: domain: SH3 (C-ter Vav); also called pGEX-4T-SH3 (C-ter Vav); not shown: glutathione S-transferase of vector pGEX-4T
Take B1: the binding result is recorded as “no binding”.
